We go through 10 molecules from PMC6535971 (ACS Central Science, 2019).

Where no end group is shown, it is not given here. Some results are limits rather than exact numbers.

In assay [1] the target is Methanocaldococcus jannaschii YcaO (MjYcaO), wild type (Methanocaldococcus jannaschii) (UniProt Q58494). Put plainly: fluorescence polarisation. Background: Fluorescence polarisation rises when a labelled molecule tumbles more slowly, as on binding a larger partner.
The target in assay [2] is T1, MjYcaO (Methanocaldococcus jannaschii, UniProt Q58494).
T1 sequence (Q58494 1-385): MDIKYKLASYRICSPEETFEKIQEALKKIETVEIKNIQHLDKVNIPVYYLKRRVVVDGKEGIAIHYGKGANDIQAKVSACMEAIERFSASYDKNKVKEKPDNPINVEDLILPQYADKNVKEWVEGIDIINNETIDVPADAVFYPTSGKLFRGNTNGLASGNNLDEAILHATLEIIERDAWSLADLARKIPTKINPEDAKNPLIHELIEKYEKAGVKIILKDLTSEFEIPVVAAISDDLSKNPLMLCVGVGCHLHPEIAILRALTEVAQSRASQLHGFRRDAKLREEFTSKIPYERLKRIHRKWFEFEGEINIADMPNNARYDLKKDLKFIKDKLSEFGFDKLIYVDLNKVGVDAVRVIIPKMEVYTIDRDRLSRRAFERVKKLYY
Description: Competition FP binding assay. As to conditions: competitive FP, MBP-tagged 11-mer variant against FITC-labeled 11-mer peptide.

The target of assay [3] is T1, MjYcaO. Put plainly: Cyclodehydration reaction, MALDI-TOF-MS. Format: biochemical. As to conditions: wild-type MjYcaO and ATP at pH 7.5, no added anion.
The test system of the next assay is MkYcaO. Description: Cyclodehydration reaction, MALDI-TOF-MS. Format: biochemical, Methanopyrus kandleri. The following applies: pH 7.0 with additional phosphate.
For assay [4], the target named is T2, Methanocaldococcus jannaschii YcaO (MjYcaO), wild type (Methanocaldococcus jannaschii, UniProt Q58494 1-385).
T2 sequence: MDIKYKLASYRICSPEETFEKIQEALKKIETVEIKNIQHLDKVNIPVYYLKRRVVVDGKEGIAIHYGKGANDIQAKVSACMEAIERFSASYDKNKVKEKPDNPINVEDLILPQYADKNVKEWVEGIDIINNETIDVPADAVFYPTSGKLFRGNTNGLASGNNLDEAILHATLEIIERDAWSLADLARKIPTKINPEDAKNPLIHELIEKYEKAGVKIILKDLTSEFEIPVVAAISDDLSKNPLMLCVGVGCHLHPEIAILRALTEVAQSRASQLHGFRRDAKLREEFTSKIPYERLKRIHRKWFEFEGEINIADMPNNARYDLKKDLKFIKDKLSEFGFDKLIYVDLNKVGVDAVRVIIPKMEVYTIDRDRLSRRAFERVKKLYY
Description: crystal structure.

Assay [5] deals with T2, Methanocaldococcus jannaschii YcaO …. Put plainly: fluorescence polarisation.
Another assay has as its target T3, MjYcaO W303A variant (Methanocaldococcus jannaschii, UniProt Q58494 1-385, W303A).
T3 sequence: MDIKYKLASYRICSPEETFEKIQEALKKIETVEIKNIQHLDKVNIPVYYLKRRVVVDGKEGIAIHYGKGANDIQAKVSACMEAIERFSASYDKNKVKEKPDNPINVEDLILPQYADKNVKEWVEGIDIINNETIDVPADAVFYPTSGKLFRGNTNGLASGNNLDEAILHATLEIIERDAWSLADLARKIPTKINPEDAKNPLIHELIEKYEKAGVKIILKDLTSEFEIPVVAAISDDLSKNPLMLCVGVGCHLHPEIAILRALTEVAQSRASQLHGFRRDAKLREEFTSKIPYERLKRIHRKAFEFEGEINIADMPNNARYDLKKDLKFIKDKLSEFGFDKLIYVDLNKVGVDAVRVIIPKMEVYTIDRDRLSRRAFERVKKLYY
Put plainly: fluorescence polarisation.

The target in another assay is T4, MjYcaO W180V variant (Methanocaldococcus jannaschii, UniProt Q58494 1-385, W180V).
T4 sequence: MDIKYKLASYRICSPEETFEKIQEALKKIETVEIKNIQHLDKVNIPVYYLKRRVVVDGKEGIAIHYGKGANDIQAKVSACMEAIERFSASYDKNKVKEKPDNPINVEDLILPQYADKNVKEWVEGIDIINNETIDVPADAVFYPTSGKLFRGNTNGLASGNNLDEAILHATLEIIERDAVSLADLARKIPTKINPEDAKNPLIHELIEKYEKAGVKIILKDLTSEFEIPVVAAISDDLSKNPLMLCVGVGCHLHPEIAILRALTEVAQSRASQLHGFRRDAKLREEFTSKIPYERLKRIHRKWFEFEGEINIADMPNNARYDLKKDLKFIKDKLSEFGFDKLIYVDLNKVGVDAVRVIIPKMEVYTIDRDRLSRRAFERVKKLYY
Put plainly: fluorescence polarisation.

The next assay concerns the target T5, MjYcaO Y66A variant (Methanocaldococcus jannaschii, UniProt Q58494 1-385, Y66A).
T5 sequence: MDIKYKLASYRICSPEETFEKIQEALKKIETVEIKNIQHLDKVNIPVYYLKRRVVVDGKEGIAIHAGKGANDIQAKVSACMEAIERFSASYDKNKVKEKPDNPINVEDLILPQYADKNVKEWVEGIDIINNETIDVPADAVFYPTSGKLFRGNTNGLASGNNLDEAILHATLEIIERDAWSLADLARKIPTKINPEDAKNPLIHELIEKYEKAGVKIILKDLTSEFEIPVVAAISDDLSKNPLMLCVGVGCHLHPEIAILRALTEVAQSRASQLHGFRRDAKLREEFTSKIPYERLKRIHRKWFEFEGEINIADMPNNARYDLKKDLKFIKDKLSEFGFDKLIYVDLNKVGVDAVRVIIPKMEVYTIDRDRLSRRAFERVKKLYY
Put plainly: fluorescence polarisation.

For a further assay, the target named is T6, MjYcaO Y66G variant (Methanocaldococcus jannaschii, UniProt Q58494 1-385, Y66G).
T6 sequence: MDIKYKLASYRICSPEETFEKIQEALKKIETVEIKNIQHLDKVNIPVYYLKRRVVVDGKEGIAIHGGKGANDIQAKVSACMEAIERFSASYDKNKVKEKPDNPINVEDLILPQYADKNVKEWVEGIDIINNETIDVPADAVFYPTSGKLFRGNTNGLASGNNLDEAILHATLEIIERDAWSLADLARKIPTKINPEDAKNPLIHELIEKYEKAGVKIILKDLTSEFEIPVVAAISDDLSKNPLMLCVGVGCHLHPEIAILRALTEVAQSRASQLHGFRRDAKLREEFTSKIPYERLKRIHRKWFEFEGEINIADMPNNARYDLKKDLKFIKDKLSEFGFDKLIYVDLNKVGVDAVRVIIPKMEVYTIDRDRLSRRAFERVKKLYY
Put plainly: fluorescence polarisation.

The next assay has as its target T7, MjYcaO W180F variant (Methanocaldococcus jannaschii, UniProt Q58494 1-385, W180F).
T7 sequence: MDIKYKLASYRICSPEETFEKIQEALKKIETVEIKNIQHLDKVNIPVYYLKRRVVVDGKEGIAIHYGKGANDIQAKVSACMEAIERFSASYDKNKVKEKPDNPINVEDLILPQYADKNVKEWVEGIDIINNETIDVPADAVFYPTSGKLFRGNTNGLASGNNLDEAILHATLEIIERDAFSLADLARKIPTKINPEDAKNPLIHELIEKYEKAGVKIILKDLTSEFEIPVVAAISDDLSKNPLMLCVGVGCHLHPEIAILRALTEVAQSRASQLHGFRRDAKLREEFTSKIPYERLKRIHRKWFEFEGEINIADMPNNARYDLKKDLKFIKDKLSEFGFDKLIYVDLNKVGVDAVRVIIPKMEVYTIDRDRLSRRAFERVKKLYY
Description: fluorescence polarisation.

In the next assay the target is T8, MjYcaO Y66L variant (Methanocaldococcus jannaschii, UniProt Q58494 1-385, Y66L).
T8 sequence: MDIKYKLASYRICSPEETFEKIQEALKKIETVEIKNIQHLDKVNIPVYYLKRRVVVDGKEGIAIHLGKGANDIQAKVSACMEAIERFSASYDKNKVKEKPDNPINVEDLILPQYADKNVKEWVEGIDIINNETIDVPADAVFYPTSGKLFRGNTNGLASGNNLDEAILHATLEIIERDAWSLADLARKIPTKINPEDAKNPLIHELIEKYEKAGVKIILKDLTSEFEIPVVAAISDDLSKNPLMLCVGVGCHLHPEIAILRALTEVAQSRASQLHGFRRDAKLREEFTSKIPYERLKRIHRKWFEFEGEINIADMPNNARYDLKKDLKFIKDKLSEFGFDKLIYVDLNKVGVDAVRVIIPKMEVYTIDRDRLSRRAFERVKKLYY
Put plainly: fluorescence polarisation.

For another assay, the target named is T9, MjYcaO Y66F variant (Methanocaldococcus jannaschii, UniProt Q58494 1-385, Y66F).
T9 sequence: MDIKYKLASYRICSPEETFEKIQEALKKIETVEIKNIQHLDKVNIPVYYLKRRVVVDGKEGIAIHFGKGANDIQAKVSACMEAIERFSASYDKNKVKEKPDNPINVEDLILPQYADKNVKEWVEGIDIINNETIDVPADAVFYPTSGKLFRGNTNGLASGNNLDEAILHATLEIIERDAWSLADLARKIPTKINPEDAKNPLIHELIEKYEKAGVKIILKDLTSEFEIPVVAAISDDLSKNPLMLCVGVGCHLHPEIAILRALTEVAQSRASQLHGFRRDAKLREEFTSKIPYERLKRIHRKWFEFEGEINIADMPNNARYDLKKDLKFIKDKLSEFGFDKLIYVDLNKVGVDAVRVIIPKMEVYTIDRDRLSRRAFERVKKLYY
Description: fluorescence polarisation.

The target of assay [6] is T2, Methanocaldococcus jannaschii YcaO …. Description: fluorescence polarisation. This is another data set of the same source.

For “MBP-tagged MjMcrA peptide, F(-2)A variant”, the fold increase in Ki against the wild-type peptide in [1] amounted to 3 fold. Same read-out and setting: the figure for MjMcrA Y(+1)S 11-mer peptide is 2 fold. On the same count and under the same terms, to MjMcrA Y(+1)C 11-mer peptide … belongs 2 fold; to “MBP-tagged MjMcrA peptide, Leu(-4) to Ala”, above 6 fold; to “MBP-tagged MjMcrA peptide, D(+2)A variant”, 4 fold. RLGFYGCDLQD [Y(+1)C 11-mer]: on MjYcaO [2], the “increase in Ki relative to wild-type” value is given as 2 fold. For the same molecule, on MjYcaO [3], the “cyclodehydration (change of peptide mass)” value is given as “almost no change”. In addition, the cyclodehydration result with MkYcaO was “enzyme-dependent conversion to the dehydrated species”. The molecule “MBP-tagged MjMcrA peptide, Gly(-3) to Ala” yielded a fold increase in Ki against the wild-type peptide in assay [1] above 6 fold. Regarding RLGFYGYDLQD [MjMcrA 11-mer peptide RLGFYGYDLQD], the binding result in assay [4] is reported as “binds”. Take RLGFYGYDLQD (not fully specified (N-terminus); also: FITC label (site not given here)) [FITC-labeled 11-mer MjMcrA peptide RLGFYGYDLQD (without the double Gly linker)]: in assay [5], the binding result is given as “binds”. With GGRLGFYGYDLQD (not fully specified (N-terminus); also: FITC label (site not given here)) [FITC-labeled 13-mer MjMcrA peptide GG-RLGFYGYDLQD], the binding result in the assay with MjYcaO W303A variant, with MjYcaO W180V variant, with MjYcaO Y66A variant, with MjYcaO Y66G variant, with MjYcaO W180F variant and in the assay with MjYcaO Y66L variant was “binds” in each case. The binding result (in the assay with MjYcaO Y66F variant; in [6]) was “binds” throughout.
